Measured values taken from the supplement of paper PMC10065799, “High-throughput profiling of sequence recognition by tyrosine kinases and SH2 domains using bacterial peptide display” (eLife, 2023).

Experiments:
EPHB1 = EPHB1 (UniProt P54762); experiment: phosphorylation enrichment, bacterial display (enrichment ratio); higher = better substrate or ligand; peptides without Tyr show the background
FGFR1 = FGFR1 (UniProt P11362); experiment: as above
Fer (mouse) = experiment: as above
Hck = Hck (UniProt P08631); experiment: as above
Fyn = Fyn (UniProt P06241); experiment: as above
c-Src = experiment: as above
Jak2 = Jak2 (UniProt O60674); experiment: as above
Sequence of Jak2 (O60674 whole entry, looked up): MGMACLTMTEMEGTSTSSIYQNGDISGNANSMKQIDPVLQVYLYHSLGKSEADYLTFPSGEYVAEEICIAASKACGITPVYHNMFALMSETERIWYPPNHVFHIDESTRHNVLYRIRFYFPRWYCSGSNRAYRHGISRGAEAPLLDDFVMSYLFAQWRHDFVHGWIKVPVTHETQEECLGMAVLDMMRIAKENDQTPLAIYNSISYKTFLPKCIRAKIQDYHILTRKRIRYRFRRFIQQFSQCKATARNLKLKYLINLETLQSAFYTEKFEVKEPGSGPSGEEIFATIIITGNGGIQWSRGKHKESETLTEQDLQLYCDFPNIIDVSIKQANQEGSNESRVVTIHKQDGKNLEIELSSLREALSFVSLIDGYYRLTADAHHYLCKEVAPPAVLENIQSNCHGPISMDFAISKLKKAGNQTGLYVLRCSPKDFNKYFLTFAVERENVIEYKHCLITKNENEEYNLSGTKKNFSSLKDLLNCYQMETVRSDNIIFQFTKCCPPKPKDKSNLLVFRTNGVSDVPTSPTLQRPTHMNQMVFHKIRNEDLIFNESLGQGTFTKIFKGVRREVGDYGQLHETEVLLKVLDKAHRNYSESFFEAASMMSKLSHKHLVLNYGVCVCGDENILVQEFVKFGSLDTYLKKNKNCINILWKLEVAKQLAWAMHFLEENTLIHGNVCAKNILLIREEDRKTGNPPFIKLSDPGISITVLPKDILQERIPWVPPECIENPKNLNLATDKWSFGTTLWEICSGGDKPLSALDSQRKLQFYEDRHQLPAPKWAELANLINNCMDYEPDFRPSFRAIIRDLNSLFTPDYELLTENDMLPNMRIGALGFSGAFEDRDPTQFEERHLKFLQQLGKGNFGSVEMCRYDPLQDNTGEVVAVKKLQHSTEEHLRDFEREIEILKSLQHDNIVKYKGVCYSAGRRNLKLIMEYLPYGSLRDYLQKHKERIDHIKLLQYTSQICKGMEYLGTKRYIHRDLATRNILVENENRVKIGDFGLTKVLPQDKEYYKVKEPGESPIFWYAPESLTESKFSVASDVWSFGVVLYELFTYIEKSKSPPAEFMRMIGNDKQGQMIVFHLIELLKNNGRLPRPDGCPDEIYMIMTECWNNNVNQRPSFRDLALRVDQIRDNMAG

FGFR3 = FGFR3 (UniProt P22607); experiment: as above
Fes = Fes (UniProt P07332); experiment: as above
Sequence of Fes (P07332 whole entry, looked up): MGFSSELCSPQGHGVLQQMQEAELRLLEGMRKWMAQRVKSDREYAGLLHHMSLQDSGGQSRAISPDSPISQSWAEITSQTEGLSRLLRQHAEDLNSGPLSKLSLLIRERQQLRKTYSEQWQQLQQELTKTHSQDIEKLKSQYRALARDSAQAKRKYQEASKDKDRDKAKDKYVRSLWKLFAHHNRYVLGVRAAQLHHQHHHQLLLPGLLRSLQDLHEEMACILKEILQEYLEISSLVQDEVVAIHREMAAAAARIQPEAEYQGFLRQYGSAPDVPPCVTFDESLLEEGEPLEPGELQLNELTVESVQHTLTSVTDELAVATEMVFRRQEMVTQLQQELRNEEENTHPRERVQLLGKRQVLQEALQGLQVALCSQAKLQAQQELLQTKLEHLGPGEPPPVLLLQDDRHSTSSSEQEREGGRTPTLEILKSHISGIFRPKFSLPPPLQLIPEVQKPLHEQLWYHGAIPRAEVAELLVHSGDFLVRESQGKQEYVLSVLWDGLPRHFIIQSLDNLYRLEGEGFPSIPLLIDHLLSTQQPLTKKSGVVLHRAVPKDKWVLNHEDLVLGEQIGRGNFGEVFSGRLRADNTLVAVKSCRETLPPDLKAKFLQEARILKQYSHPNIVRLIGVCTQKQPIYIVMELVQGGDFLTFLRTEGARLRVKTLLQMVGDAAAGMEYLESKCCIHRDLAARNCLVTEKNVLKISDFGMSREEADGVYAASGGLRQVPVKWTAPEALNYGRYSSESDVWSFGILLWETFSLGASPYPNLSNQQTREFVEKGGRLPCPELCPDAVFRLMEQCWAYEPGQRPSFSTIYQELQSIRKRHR

AncSZ = experiment: as above
EPHB2 = EPHB2 (UniProt P29323); experiment: as above
Sequence of EPHB2 (P29323 whole entry, looked up): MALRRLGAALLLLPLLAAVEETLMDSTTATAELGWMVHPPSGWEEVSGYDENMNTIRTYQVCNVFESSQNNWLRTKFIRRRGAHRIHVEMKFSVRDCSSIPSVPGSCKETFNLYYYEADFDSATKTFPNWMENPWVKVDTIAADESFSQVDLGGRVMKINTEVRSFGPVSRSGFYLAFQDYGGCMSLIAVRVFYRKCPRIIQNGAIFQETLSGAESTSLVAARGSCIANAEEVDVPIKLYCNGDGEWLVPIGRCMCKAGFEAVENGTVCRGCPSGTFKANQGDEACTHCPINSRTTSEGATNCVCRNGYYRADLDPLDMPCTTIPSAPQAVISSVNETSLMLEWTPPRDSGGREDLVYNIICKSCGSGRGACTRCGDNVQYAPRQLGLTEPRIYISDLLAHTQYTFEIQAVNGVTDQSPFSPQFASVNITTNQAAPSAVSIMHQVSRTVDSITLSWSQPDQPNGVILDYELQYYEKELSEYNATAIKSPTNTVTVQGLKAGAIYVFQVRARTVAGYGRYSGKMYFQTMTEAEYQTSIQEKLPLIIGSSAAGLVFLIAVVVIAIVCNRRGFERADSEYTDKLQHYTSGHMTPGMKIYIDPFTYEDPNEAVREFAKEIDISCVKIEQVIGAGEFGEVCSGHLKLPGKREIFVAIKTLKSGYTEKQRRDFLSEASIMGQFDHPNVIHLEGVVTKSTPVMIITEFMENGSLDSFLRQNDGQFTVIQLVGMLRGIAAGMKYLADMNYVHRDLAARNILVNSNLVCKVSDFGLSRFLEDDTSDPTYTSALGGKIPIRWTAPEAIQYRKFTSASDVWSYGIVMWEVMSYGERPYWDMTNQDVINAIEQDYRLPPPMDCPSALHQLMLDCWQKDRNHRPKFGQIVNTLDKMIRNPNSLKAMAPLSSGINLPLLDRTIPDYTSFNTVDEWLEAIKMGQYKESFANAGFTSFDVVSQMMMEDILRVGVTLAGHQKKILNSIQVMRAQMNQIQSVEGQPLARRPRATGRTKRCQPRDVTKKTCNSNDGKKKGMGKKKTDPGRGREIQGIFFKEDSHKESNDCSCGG

MERTK = MERTK (UniProt Q12866); experiment: as above
Sequence of MERTK (Q12866 whole entry, looked up): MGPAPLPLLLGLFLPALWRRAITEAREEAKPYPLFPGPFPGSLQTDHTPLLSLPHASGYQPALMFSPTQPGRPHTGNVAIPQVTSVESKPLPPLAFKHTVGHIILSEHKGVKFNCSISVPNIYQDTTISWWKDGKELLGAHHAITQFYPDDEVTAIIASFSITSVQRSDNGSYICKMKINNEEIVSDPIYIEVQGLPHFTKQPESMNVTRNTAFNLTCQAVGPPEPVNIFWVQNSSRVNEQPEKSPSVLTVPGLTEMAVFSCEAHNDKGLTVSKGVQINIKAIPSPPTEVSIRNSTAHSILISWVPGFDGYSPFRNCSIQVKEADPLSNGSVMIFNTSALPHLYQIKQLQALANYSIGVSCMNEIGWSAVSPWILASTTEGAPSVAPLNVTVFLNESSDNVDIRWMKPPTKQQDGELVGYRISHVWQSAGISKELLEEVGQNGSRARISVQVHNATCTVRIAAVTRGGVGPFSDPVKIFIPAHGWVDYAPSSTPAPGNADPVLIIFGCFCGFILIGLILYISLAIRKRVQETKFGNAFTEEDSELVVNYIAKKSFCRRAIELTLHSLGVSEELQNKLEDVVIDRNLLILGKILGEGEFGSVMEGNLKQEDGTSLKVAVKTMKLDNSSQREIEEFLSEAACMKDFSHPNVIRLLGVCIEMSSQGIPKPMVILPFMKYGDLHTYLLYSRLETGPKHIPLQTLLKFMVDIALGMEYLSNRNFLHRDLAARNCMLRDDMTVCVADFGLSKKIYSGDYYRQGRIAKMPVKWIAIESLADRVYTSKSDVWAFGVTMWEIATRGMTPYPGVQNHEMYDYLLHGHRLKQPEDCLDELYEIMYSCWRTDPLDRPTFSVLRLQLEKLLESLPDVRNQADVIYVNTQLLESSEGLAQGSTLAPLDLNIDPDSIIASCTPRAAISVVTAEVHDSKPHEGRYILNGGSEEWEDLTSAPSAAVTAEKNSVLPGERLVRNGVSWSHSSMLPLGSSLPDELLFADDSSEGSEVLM

c-Abl (mouse) = experiment: as above
SHP2-C SH2 = experiment: SH2 binding enrichment of the phosphorylated peptide, bacterial display (enrichment ratio); higher = better substrate or ligand; peptides without Tyr show the background
Grb2 SH2 = Grb2 SH2 (UniProt P62993); experiment: as above
Sequence of Grb2 SH2 (P62993 whole entry, looked up): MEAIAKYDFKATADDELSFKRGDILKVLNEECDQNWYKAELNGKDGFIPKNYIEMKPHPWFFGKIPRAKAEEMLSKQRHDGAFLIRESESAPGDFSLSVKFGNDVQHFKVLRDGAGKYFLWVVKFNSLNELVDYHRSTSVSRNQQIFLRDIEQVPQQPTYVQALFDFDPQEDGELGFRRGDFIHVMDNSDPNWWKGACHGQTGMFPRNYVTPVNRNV

c-Src SH2 = experiment: as above
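For SH2 binding enrichment of the phosphorylated peptide, bacterial display in this document: peptide library displayed on the E. coli surface as eCPX fusions, selected cells deep-sequenced, score is each peptide's frequency after selection divided by its frequency in the input.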
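For phosphorylation enrichment, bacterial display in this document: 11-residue human phosphosite peptides and single-mutation variants displayed on the E. coli surface, counted by deep sequencing, each peptide's frequency after selection divided by its frequency in the unselected input library; frequency after pTyr selection over input frequency; kinase dosed for 20-30% of maximal phosphorylation in three min.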

Sequence of FGFR1 (P11362 whole entry, looked up): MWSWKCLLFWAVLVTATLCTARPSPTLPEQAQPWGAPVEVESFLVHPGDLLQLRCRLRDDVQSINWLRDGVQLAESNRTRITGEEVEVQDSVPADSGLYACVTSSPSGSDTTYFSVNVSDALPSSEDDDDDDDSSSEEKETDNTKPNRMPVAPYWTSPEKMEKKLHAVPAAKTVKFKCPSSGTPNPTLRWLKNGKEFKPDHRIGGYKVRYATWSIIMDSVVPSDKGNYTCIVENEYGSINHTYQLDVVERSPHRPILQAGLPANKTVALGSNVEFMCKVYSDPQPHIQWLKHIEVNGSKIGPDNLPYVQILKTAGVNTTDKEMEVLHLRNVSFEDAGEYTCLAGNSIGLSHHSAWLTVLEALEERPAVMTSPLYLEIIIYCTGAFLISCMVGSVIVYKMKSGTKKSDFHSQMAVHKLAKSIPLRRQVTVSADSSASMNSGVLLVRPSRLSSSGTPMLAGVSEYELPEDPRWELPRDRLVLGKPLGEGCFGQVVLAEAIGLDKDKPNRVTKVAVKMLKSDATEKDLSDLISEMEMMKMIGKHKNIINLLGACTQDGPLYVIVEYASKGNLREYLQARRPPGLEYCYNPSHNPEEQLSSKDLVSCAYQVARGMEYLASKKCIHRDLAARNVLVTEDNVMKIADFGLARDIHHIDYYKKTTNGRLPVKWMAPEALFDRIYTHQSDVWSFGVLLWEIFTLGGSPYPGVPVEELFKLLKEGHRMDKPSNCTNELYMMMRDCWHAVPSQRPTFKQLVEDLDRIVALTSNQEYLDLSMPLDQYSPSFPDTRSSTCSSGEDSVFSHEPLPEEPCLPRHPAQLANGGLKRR

| Sequence | phosphorylation enrichment (EPHB1) | phosphorylation enrichment (FGFR1) | phosphorylation enrichment (Fer (mouse)) | phosphorylation enrichment (Hck) | phosphorylation enrichment (Fyn) | phosphorylation enrichment (c-Src) | phosphorylation enrichment (Jak2) | phosphorylation enrichment (FGFR3) | phosphorylation enrichment (Fes) | phosphorylation enrichment (AncSZ) | phosphorylation enrichment (EPHB2) | phosphorylation enrichment (MERTK) | phosphorylation enrichment (c-Abl (mouse)) | SH2 binding enrichment (SHP2-C SH2) | SH2 binding enrichment (Grb2 SH2) | SH2 binding enrichment (c-Src SH2) |
| --- | --- | --- | --- | --- | --- | --- | --- | --- | --- | --- | --- | --- | --- | --- | --- | --- |
| RLQEDYDHSYY [ESD_Y258_G257D] | 0.814 | 0.923 | 0.572 | 0.781 | 0.824 | 1.06 | 1.56 | 1.03 | 1.55 | 1.78 | 0.811 | 0.754 | 0.943 | 0.741 | 0.932 | 1.16 |
| RLVTRYIYNRE [HLA-DQB1_Y62_Y58L] | 0.443 | 0.86 | 0.408 | 0.424 | 0.673 | 0.532 | 0.493 | 0.739 | 0.822 | 0.697 | 0.481 | 0.507 | 0.447 | 0.906 | 0.836 | 0.39 |
| RMDGKYACSFT [FLNB_Y704_T703K_YF] | 0.882 | 1.1 | 0.701 | 0.964 | 0.756 | 0.491 | 0.929 | 1.45 | 1.28 | 1.38 | 0.977 | 0.589 | 0.902 | 0.638 | 0.935 | 0.566 |
| RMDGKYACSYT [FLNB_Y704_T703K] | 0.437 | 0.528 | 0.635 | 0.541 | 0.418 | 0.664 | 0.722 | 0.518 | 1.02 | 0.899 | 0.471 | 0.484 | 0.79 | 0.863 | 0.997 | 0.878 |
| RNPLRYTSILT [OR51B6_Y130_S126N] | 0.478 | 0.582 | 0.474 | 0.498 | 0.532 | 0.65 | 0.892 | 0.738 | 0.794 | 0.689 | 0.482 | 0.484 | 0.697 | 3.4 | 1.86 | 3.12 |
| RPQDGFRIVQH [PTPRT_Y1329_Y1329F] | 0.62 | 0.43 | 0.417 | 0.532 | 0.597 | 0.483 | 0.561 | 0.45 | 0.838 | 0.769 | 0.426 | 0.52 | 0.836 | 0.734 | 0.766 | 0.586 |
| RPSRQYATRDV [SCAMP3_Y35_L38R] | 0.366 | 0.473 | 0.381 | 0.412 | 0.396 | 0.407 | 0.352 | 0.352 | 0.498 | 0.598 | 0.356 | 0.274 | 0.615 | 0.801 | 0.765 | 0.417 |
| RQGKDYVGAIP [KDR_Y951] | 0.471 | 1.44 | 0.361 | 0.452 | 0.552 | 0.487 | 0.656 | 0.409 | 0.832 | 0.705 | 0.442 | 0.485 | 0.636 | 0.79 | 0.818 | 0.488 |
| RRFSSYSQMEN [PKP1_Y120] | 0.984 | 1.34 | 0.833 | 0.896 | 1.48 | 0.614 | 0.657 | 1.18 | 2.57 | 2.29 | 0.89 | 1.06 | 0.808 | 0.774 | 0.79 | 0.559 |
| RRGMPYGGCGD [TGM1_Y312_R315C] | 0.551 | 0.634 | 0.409 | 0.659 | 0.522 | 0.486 | 0.5 | 0.573 | 0.489 | 0.782 | 0.486 | 0.454 | 0.595 | 0.57 | 0.544 | 0.327 |
| RRIHSYRGHLC [VHL_Y112_W117C] | 0.656 | 0.503 | 0.382 | 0.63 | 0.531 | 0.566 | 0.821 | 0.733 | 1.3 | 0.774 | 0.619 | 0.828 | 0.534 | 0.478 | 0.95 | 0.534 |
| RRLEPYGENFN [APOA4_Y310_V307L] | 0.398 | 0.266 | 0.315 | 0.25 | 0.281 | 0.463 | 0.681 | 0.493 | 0.732 | 1.04 | 0.317 | 0.385 | 0.371 | 0.286 | 0.822 | 0.527 |
| RRMLQYLTVND [PPFIBP2_Y663] | 0.417 | 0.63 | 0.456 | 0.686 | 0.501 | 0.486 | 0.882 | 0.632 | 0.862 | 0.803 | 0.584 | 0.475 | 0.691 | 0.976 | 0.994 | 0.51 |
| RRRLIYRCQVG [NR2E3_Y81] | 0.76 | 0.854 | 0.587 | 0.884 | 0.915 | 0.556 | 0.679 | 0.601 | 1.05 | 0.776 | 0.983 | 0.735 | 0.697 | 0.566 | 0.727 | 0.286 |
| RRSQSYIPTSG [PLEKHA2_Y185] | 0.372 | 0.615 | 0.354 | 0.473 | 0.707 | 0.682 | 0.649 | 0.455 | 0.709 | 0.663 | 0.729 | 0.59 | 0.497 | 0.85 | 0.941 | 0.529 |
| RRVPVYGGRGA [QDPR_Y16_L14P] | 0.573 | 0.762 | 0.626 | 0.702 | 0.626 | 1.15 | 1.36 | 0.627 | 0.836 | 0.969 | 0.512 | 0.779 | 1.28 | 0.774 | 0.852 | 0.527 |
